Results reported in the supplement of paper PMC10126150.
± gives the standard deviation of the averaged measurements.
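Further: ATP exposure 15 min at 22 °C before imaging.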

The sequences below were run on ATP (assay: switch fluorescence ratio, 500 uM ATP over buffer (Cy3 cluster intensity, sum of 5 cycles each) (fold (ratio)); higher = stronger signal-on switching upon ATP binding; sequences stand for … in TCGTCGGCAGCGTCAGATGTGTATAAGAGACAGTTTTTTTTTTTTTTTTTTTTTTTTT…TC). Conditions: aptamer strand: ATP DNA aptamer (quencher-CACCTGGGGGAGTATTGCGGAGGAAGG + anchor), 100 nM annealed; ATP concentration: 500 uM.
Summary of the method: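 Between each of five buffer/ATP cycles, the flow-cell was stripped with NaOH and re-annealed. Each cycle imaged Cy3-labelled switching-strand clusters, annealed to 100 nM quencher-labelled ATP aptamer on a modified Illumina MiSeq flow-cell, first in selection buffer and then after 15 min with 500 uM ATP at 22 °C. The fluorescence ratio is summed target-cycle over summed buffer-cycle Cy3 intensity per cluster, averaged per switch-domain sequence, with clusters outside 100-1000 RFU excluded.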
Work on GAACGGTGGG yielded a switch fluorescence ratio of 0.976 ± 0.019.
With GCGGAGAGGT the switch fluorescence ratio was 1.03 ± 0.022.
With CATAAAACGG the switch fluorescence ratio was 1.0263 ± 8.3e-05.
Work on AAGATAGGGG yielded a switch fluorescence ratio of 1 ± 0.023.
Work on GCATCCGGCG yielded a switch fluorescence ratio of 1.04 ± 0.081.
GGTAAAGATA was tested, and the switch fluorescence ratio was 0.986 ± 0.019.
For CTGTCAACGG, the switch fluorescence ratio was 1.02 ± 0.017.
In the case of TTGTTTATAA, the switch fluorescence ratio is reported as 1.02 ± 0.083.
GTTAGGTACG showed a switch fluorescence ratio of 1 ± 0.07.
CAGGAGGGCT gave a switch fluorescence ratio of 0.993 ± 0.031.
Sequence CATTGTTATC has a switch fluorescence ratio of 1.08 ± 0.085.
GTCGTATGAC was tested, and the switch fluorescence ratio was 1.08 ± 0.042.
GGGGTTGAAG was tested, and the switch fluorescence ratio was 0.979 ± 0.01.
For GGGGTATGGG, the switch fluorescence ratio was 0.985 ± 0.038.
TATCTAAATC showed a switch fluorescence ratio of 0.9967 ± 0.0063.
For GGGGGAAAGT, the switch fluorescence ratio was 0.992 ± 0.026.
With TGCCCTGCCT the switch fluorescence ratio was 1.03 ± 0.024.
Work on ACGGCTACGG yielded a switch fluorescence ratio of 1.02 ± 0.018.
In the case of GGGGTCCTTT, the switch fluorescence ratio is reported as 0.9886 ± 0.0044.
Work on GCGAGTGTGA yielded a switch fluorescence ratio of 1 ± 0.036.
For GAGAAAACCG, the switch fluorescence ratio was 1.06 ± 0.092.
CGAGGCTCCG showed a switch fluorescence ratio of 1.05 ± 0.026.
CTCAATTCTG showed a switch fluorescence ratio of 0.969 ± 0.031.
Work on GACCACAGCG yielded a switch fluorescence ratio of 1.02 ± 0.029.
In the case of ACAGTTGGTT, the switch fluorescence ratio is reported as 0.99 ± 0.06.
With TAACGCTTTT the switch fluorescence ratio was 1.002 ± 0.0065.
For AGTTGAATTT, the switch fluorescence ratio was 0.9885 ± 0.0016.
In the case of ATGGTTTAA, the switch fluorescence ratio is reported as 1 ± 0.044.
With TCGGGGCAG the switch fluorescence ratio was 0.976 ± 0.033.
Work on ATATTCTGGG yielded a switch fluorescence ratio of 0.969 ± 0.015.
TGGGGGAGG gave a switch fluorescence ratio of 0.9974 ± 0.0058.
With AGGGGTGATG the switch fluorescence ratio was 0.9827 ± 0.001.
GGTTCCAAGC gave a switch fluorescence ratio of 1.06 ± 0.04.
Sequence GCGAGAGTGT has a switch fluorescence ratio of 0.99552 ± 0.00015.
For GCGAAAAGAA, the switch fluorescence ratio was 1.05 ± 0.054.
TTTGTCAGGC was tested, and the switch fluorescence ratio was 1.02 ± 0.053.
In the case of TATGGGTTAA, the switch fluorescence ratio is reported as 1.01 ± 0.022.
Work on ACCCGGACCT yielded a switch fluorescence ratio of 1.34 ± 0.059.
GGATTACGAC was tested, and the switch fluorescence ratio was 1.12 ± 0.15.
In the case of CGGGCGTCTC, the switch fluorescence ratio is reported as 0.996 ± 0.022.
With ATCTGGCGTC the switch fluorescence ratio was 0.998 ± 0.033.
With ATACGGACGG the switch fluorescence ratio was 1.4 ± 0.073.
Work on GAAAGGGTGT yielded a switch fluorescence ratio of 1.03 ± 0.026.
TATAGTGGGA was tested, and the switch fluorescence ratio was 1 ± 0.032.
Work on TATTCATGGT yielded a switch fluorescence ratio of 1.025 ± 0.0057.
Sequence ATGGAGGGAC has a switch fluorescence ratio of 1.48 ± 0.66.
GGCGACTAAA was tested, and the switch fluorescence ratio was 1.07 ± 0.057.
CGTGAACTCT was tested, and the switch fluorescence ratio was 0.999 ± 0.016.
AATCGGGAA was tested, and the switch fluorescence ratio was 0.9868 ± 0.0041.
In the case of ACTCCTCGAC, the switch fluorescence ratio is reported as 2.71 ± 0.41.
Sequence TTGTGTGGGG has a switch fluorescence ratio of 1.01 ± 0.034.
Sequence TTTTTCATTT has a switch fluorescence ratio of 1.01 ± 0.023.
GGATTTGCCT was tested, and the switch fluorescence ratio was 0.997 ± 0.041.
Sequence AAATAACTAC has a switch fluorescence ratio of 1.08 ± 0.015.
With TTATATTACT the switch fluorescence ratio was 1.01 ± 0.027.
For TTAGTTTATG, the switch fluorescence ratio was 0.981 ± 0.017.
TTTTTAAGTC was tested, and the switch fluorescence ratio was 0.985 ± 0.026.
In the case of AAGGGCGGC, the switch fluorescence ratio is reported as 1.03 ± 0.018.
Sequence CATCTTGAAA has a switch fluorescence ratio of 1.028 ± 0.0097.
GAGGTAGAGG showed a switch fluorescence ratio of 0.986 ± 0.026.
With ATCGTAGGTG the switch fluorescence ratio was 1.04 ± 0.12.
ATTCCAATTT was tested, and the switch fluorescence ratio was 1.08 ± 0.035.
For TGGACGTTGC, the switch fluorescence ratio was 1.03 ± 0.012.
Work on TTTTACACTT yielded a switch fluorescence ratio of 1.04 ± 0.017.
Work on GTAGCAACGG yielded a switch fluorescence ratio of 1.59 ± 0.1.
GATTCAGGTA was tested, and the switch fluorescence ratio was 1.01 ± 0.026.
TGAGATAACA gave a switch fluorescence ratio of 0.9943 ± 0.0033.
With TATCGTATTC the switch fluorescence ratio was 0.97 ± 0.037.
For ACGTTAAATG, the switch fluorescence ratio was 1.13 ± 0.053.
GTTTGTTGAG gave a switch fluorescence ratio of 0.979 ± 0.025.
In the case of ATGAGCCAGT, the switch fluorescence ratio is reported as 1.003 ± 0.004.
In the case of CGGGGGGTTT, the switch fluorescence ratio is reported as 1.01 ± 0.025.
For AGTTTCTTGT, the switch fluorescence ratio was 0.987 ± 0.03.
For AGTTTGAAAT, the switch fluorescence ratio was 1.01 ± 0.03.
TACTCTAAAA gave a switch fluorescence ratio of 1.08 ± 0.022.
Work on TCAGCGAAAT yielded a switch fluorescence ratio of 0.99 ± 0.016.
Work on TTGGGATAGG yielded a switch fluorescence ratio of 1.01 ± 0.029.
Work on GACAGCAGGG yielded a switch fluorescence ratio of 1.03 ± 0.025.
CTTCGAAGTT gave a switch fluorescence ratio of 0.98 ± 0.045.
Work on CACAGGGCTG yielded a switch fluorescence ratio of 1.026 ± 0.0059.
Sequence GGCCGTTTTC has a switch fluorescence ratio of 1.01 ± 0.00017.
Sequence TGGAGGGGAG has a switch fluorescence ratio of 0.9858 ± 0.0062.
Work on AACCGTTTTT yielded a switch fluorescence ratio of 1.05 ± 0.063.
AAGGTATATA showed a switch fluorescence ratio of 0.9938 ± 0.0031.
With GAGTTATTGT the switch fluorescence ratio was 0.9806 ± 0.0095.
With CAGGTTTATA the switch fluorescence ratio was 0.993 ± 0.022.
TATTCGATTC was tested, and the switch fluorescence ratio was 1.04 ± 0.017.
With ACGAAATGTT the switch fluorescence ratio was 0.988 ± 0.021.
GGCCTATTCC was tested, and the switch fluorescence ratio was 1.04 ± 0.011.
GAAAGTAGGA gave a switch fluorescence ratio of 1.02 ± 0.029.
For GCTCGCACAG, the switch fluorescence ratio was 1.321 ± 0.0081.
TGCGGGGGAT was tested, and the switch fluorescence ratio was 1.02 ± 0.033.
ACAAAGACCT gave a switch fluorescence ratio of 1.42 ± 0.031.
GCCCTTAGCA gave a switch fluorescence ratio of 1.018 ± 0.0013.
In the case of TGGGTCCGCG, the switch fluorescence ratio is reported as 1.123 ± 0.0092.
For TCCGTCTGTT, the switch fluorescence ratio was 1.003 ± 0.0052.
For ATTAGATATA, the switch fluorescence ratio was 1 ± 0.035.
GATGGGGCGC was tested, and the switch fluorescence ratio was 0.975 ± 0.069.
ATGCACTGCT gave a switch fluorescence ratio of 1.04 ± 0.021.
For TGGAAGGGGC, the switch fluorescence ratio was 1.04 ± 0.035.
Sequence GGGGTTTTGA has a switch fluorescence ratio of 0.97725 ± 0.00091.
With GAGACAGTTA the switch fluorescence ratio was 0.992 ± 0.014.
Sequence TCTTTGTCGG has a switch fluorescence ratio of 0.977 ± 0.029.
For ATTTGCTTAG, the switch fluorescence ratio was 0.994 ± 0.021.
TTTGTTTGAG showed a switch fluorescence ratio of 0.991 ± 0.037.
Sequence GAAAGTAAGC has a switch fluorescence ratio of 0.993 ± 0.012.
In the case of GTTTCGTAAT, the switch fluorescence ratio is reported as 1.084 ± 0.0038.
Work on TGTCGACTTG yielded a switch fluorescence ratio of 0.9716 ± 0.0066.
For ACGGTTGGTG, the switch fluorescence ratio was 1.01 ± 0.027.
ATTGTTTAAG was tested, and the switch fluorescence ratio was 1.01 ± 0.024.
In the case of AGGTTGGGCA, the switch fluorescence ratio is reported as 0.984 ± 0.0096.
In the case of GTAATTTTGG, the switch fluorescence ratio is reported as 0.983 ± 0.037.
For CTGGTGTCGA, the switch fluorescence ratio was 0.978 ± 0.013.
Sequence CGAGTAGTCA has a switch fluorescence ratio of 0.994 ± 0.018.
For TGGGGGATTT, the switch fluorescence ratio was 1.27 ± 0.74.
Work on TTTTCCTCTT yielded a switch fluorescence ratio of 1.02 ± 0.014.
With GAGACTAGGT the switch fluorescence ratio was 1.04 ± 0.025.
For CACTTGTTTT, the switch fluorescence ratio was 1.01 ± 0.011.
Work on GATCTAAAAG yielded a switch fluorescence ratio of 1.03 ± 0.017.
AAACGGGGCT was tested, and the switch fluorescence ratio was 1.02 ± 0.012.
For AGTTCCGTTT, the switch fluorescence ratio was 0.994 ± 0.022.
Work on CGTGGCGCCG yielded a switch fluorescence ratio of 0.957 ± 0.054.
Work on TGGTTAATGG yielded a switch fluorescence ratio of 0.989 ± 0.038.
Work on GGAGGAGGGC yielded a switch fluorescence ratio of 0.909 ± 0.043.
For ATATAAGAGC, the switch fluorescence ratio was 1.03 ± 0.02.
Work on TTTACAGTC yielded a switch fluorescence ratio of 1.01 ± 0.037.
Work on CTTTAGAATC yielded a switch fluorescence ratio of 0.941 ± 0.021.
Sequence TTGTTTTTAT has a switch fluorescence ratio of 0.992 ± 0.03.
GATGATTTTA was tested, and the switch fluorescence ratio was 1.02 ± 0.042.
Sequence AGGGATCCTT has a switch fluorescence ratio of 1.02 ± 0.031.
Sequence ATAAGGGTAA has a switch fluorescence ratio of 1 ± 0.013.
Sequence GGGGCGTTCG has a switch fluorescence ratio of 1 ± 0.071.
Work on GCCGGATTGG yielded a switch fluorescence ratio of 0.956 ± 0.021.
For GACGAGGG, the switch fluorescence ratio was 1.03 ± 0.038.
For TTTGGCTTTT, the switch fluorescence ratio was 1.06 ± 0.18.
CCGTGAATAT gave a switch fluorescence ratio of 2.21 ± 0.083.
Sequence ATGTCATGGG has a switch fluorescence ratio of 0.998 ± 0.032.
Sequence CCTATGTGCT has a switch fluorescence ratio of 1.038 ± 0.0059.
Sequence ACAGGTTAGA has a switch fluorescence ratio of 1.05 ± 0.014.
Work on AAACATTTCA yielded a switch fluorescence ratio of 0.976 ± 0.063.
For TTATTTCAAC, the switch fluorescence ratio was 0.9728 ± 0.0052.
TATACACGGA gave a switch fluorescence ratio of 1.08 ± 0.015.
AACGCGGTGG was tested, and the switch fluorescence ratio was 0.941 ± 0.017.
GCTTGAGGCT gave a switch fluorescence ratio of 0.959 ± 0.06.
For ATGTGGGCTG, the switch fluorescence ratio was 0.979 ± 0.045.
For GTGAAAGGGG, the switch fluorescence ratio was 1.11 ± 0.17.
AGGGTGGAGC was tested, and the switch fluorescence ratio was 1.07 ± 0.092.
GATTTTGGGT showed a switch fluorescence ratio of 1.02 ± 0.038.
Sequence AAATAACGGT has a switch fluorescence ratio of 1.16 ± 0.21.
In the case of TTTTTTAGAC, the switch fluorescence ratio is reported as 1.04 ± 0.08.
ATTGGGTCGG gave a switch fluorescence ratio of 0.996 ± 0.02.
Work on ACTGTTAATA yielded a switch fluorescence ratio of 1.03 ± 0.023.
AGTTAAGAT was tested, and the switch fluorescence ratio was 1.01 ± 0.022.
GAATTTAGCA gave a switch fluorescence ratio of 1.02 ± 0.031.
CGAAGATTTT was tested, and the switch fluorescence ratio was 1.05 ± 0.022.
CCAAAATTGG showed a switch fluorescence ratio of 1.018 ± 0.0052.
For CTCATATAGC, the switch fluorescence ratio was 0.999 ± 0.019.
